Test results taken from paper PMC11086627, “Substrate displacement of CK1 C-termini regulates kinase specificity” (Science Advances, 2024).
Positions count from the first letter of the chain named. Each block holds one molecule with its values, some of them ahead of it. Square brackets hold non-standard residues; d marks the D form. Ends that are not written are not given here. * marks the point of attachment. Biotin = O=C1N[C@H]2[C@H](CS[C@H]2CCCCC(=O)*)N1; pT = C[C@@H](OP(=O)(O)O)[C@H](N)C(=O)O; pS = N[C@@H](COP(=O)(O)O)C(=O)O

Tests used:
[1] = target: MBP-Hhp1ΔC (Hhp1 amino acids 1 to 296) (S. pombe) (UniProt P40235); experiment: pull-down; competitive equilibrium binding assay: as the equilibrium binding assay on peptide beads, with 25 μM substrate (casein or Rec11) added along with the kinase; fit constrained to Bmax = 1 for the apparent Kd; Ki from Kd(app)=Kd(1+[I]/Ki)
CK1ε CK1εΔC, 1-294 = CK1ε CK1εΔC, 1-294 (UniProt P49674); experiment: biotin-peptide streptavidin bead pull-down; conditions: reference: unphosphorylated EC peptide; sites S389,S390,S391,S405,T407,S408
Hhp1 Hhp1ΔC, 1-296 = Hhp1 Hhp1ΔC, 1-296 (UniProt P40235); experiment: biotin-peptide streptavidin bead pull-down; conditions: reference: unphosphorylated Cter peptide; sites S326,S327,T345,T346,S354,T356
[2] = target: Hhp1 C-terminus (Cter), 297-365 (UniProt P40235); experiment: equilibrium bead binding, supernatant depletion; conditions: reference: wild-type Hhp1ΔC; sites T221,T222
[3] = target: Hhp1 Cter-6P peptide (amino acids 297 to 365 of Hhp1, phosphorylated at six sites, biotin-conjugated) (S. pombe) (UniProt P40235); experiment: pull-down; competitive equilibrium binding assay: as the equilibrium binding assay on peptide beads, with 25 μM substrate (casein or Rec11) added along with the kinase; fit constrained to Bmax = 1 for the apparent Kd; Ki from Kd(app)=Kd(1+[I]/Ki)
[4] = target: Hhp1 Cter-6P peptide (amino acids 297 to 365 of Hhp1, phosphorylated at six sites, biotin-conjugated) (S. pombe) (UniProt P40235); experiment: pull-down; equilibrium binding assay: peptide-conjugated streptavidin beads at 0 to 847 μM peptide incubated with 100 ng of MBP-Hhp1ΔC in binding buffer [50 mM tris (pH 7.0), 25 mM NaCl, 1 mM EDTA, 1 mM DTT], 1 hour at 4°C; unbound kinase in the supernatant by Western blot and densitometry; one-site specific binding fit
[5] = target: T1, MBP-Hhp1ΔC (Hhp1 amino acids 1 to 296) (S. pombe, UniProt P40235 1-296); experiment: ITC; second replicate
T1 chain: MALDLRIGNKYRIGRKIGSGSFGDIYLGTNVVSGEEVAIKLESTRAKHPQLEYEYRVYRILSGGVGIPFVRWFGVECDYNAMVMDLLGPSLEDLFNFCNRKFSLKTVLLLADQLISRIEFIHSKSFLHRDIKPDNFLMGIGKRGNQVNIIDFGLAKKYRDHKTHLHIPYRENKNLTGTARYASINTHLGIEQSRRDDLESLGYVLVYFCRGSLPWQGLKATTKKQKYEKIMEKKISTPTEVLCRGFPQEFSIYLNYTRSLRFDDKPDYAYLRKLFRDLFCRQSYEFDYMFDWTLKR

[6] = target: T1, MBP-Hhp1ΔC (Hhp1 amino acids 1 to 296); experiment: apparent, in the presence of 25 uM Rec11
[7] = target: MBP-Hhp1ΔC (Hhp1 amino acids 1 to 296) (S. pombe) (UniProt P40235); experiment: ITC; Nano-ITC, 25°C, 10 mM NaPO4 (pH 7.5), 150 mM NaCl, 0.25 mM TCEP; cell: 100 μM MBP-Hhp1ΔC or MBP-CK1εΔC; syringe: 2 mM peptide; single-site binding model; duplicate
[8] = target: MBP-CK1εΔC (human CK1ε amino acids 1-294) (human) (UniProt P49674); experiment: as above
MBP-CK1εΔC-T220N = target: T2, MBP-CK1εΔC-T220N (human, UniProt P49674 1-294, T220N); experiment: pull-down; biotin peptide on streptavidin sepharose (500 μM peptide) incubated with 2 μg of MBP-kinaseΔC in binding buffer [50 mM tris (pH 7.0), 25 mM NaCl, 1 mM EDTA, 1 mM DTT], 1 hour at 4°C; beads blocked in 5% BSA; bound protein detected by Western blot with anti-MBP; conditions: both partners purified
T2 construct: human CK1ε, amino acids 1-294, kinase domain autophosphorylation site T220 mutated; source: E. coli Rosetta2(DE3)pLysS, purified (amylose beads, eluted with maltose)
T2 sequence (looked up): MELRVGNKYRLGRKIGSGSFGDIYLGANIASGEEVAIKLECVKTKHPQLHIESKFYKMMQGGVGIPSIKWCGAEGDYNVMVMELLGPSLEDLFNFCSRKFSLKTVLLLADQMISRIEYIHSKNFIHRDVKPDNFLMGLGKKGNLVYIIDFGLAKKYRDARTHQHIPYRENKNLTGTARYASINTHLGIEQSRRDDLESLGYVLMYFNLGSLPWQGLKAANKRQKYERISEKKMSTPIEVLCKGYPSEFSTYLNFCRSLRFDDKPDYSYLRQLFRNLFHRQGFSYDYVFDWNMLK

[9] = target: T3, MBP-Hhp1ΔC (Hhp1 amino acids 1 to 296) (S. pombe, UniProt P40235 1-296); experiment: pull-down; competitive equilibrium binding assay: as the equilibrium binding assay on peptide beads, with 25 μM substrate (casein or Rec11) added along with the kinase; fit constrained to Bmax = 1 for the apparent Kd; Ki from Kd(app)=Kd(1+[I]/Ki); conditions: both partners purified
T3 construct: Hhp1, CK1 enzyme of Schizosaccharomyces pombe, C-terminally truncated, amino acids 1-296; cDNA cloned into pMAL-C2; also called Hhp1-delC; Hhp1 kinase domain; source: E. coli Rosetta2(DE3)pLysS, purified (amylose beads, eluted with maltose)
T3 sequence (looked up): T1 chain

MBP-Hhp1ΔC-VV = target: T4, MBP-Hhp1ΔC-VV (S. pombe, UniProt P40235 1-296)
T4 chain: T1 chain with T221V, T222V

Chain of MBP-CK1εΔC (human CK1ε amino acids 1-294) (human) (P49674 1-294, stated change not applied): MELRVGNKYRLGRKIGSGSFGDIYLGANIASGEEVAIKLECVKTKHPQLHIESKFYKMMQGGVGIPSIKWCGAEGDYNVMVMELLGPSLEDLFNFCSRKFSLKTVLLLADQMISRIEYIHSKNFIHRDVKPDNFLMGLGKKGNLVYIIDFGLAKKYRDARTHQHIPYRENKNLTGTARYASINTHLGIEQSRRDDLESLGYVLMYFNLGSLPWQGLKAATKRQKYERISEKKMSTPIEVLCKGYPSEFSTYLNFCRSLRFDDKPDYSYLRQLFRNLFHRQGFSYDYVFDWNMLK
Chain of CK1ε CK1εΔC, 1-294 (P49674 383-416, stated change not applied): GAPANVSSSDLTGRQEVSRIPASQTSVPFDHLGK

Molecule: dephosphorylated alpha casein (natural protein)
Ki [1]: 14 µM

Molecule: CK1ε extreme C-terminus (EC), 383-416 (from UniProt P49674) EC-6P peptide
binding against the reference (CK1ε CK1εΔC, 1-294): gained

Molecule: Hhp1 C-terminus (Cter), 297-365 (from UniProt P40235) Cter-6P peptide
binding against the reference (Hhp1 Hhp1ΔC, 1-296): gained

Molecule: Hhp1 Hhp1ΔC, 1-296 (from UniProt P40235) Hhp1ΔC-VV
binding against the reference [2]: gained

B3: GST-Rec11-N3 (N terminus of Rec11, amino acids 1-33) (domain or fragment, UniProt Q92380 1-33, looked up)
chain: MRFEFESDASSHLNEVLTELESVELENVEYEGP
notes: Rec11, physiological Hhp1 substrate involved in meiosis, N terminus, amino acids 1-33; source: expressed and purified as previously described (16)
Ki [9]: 32 µM

B4: Hhp1 Cter peptide (amino acids 297 to 365 of Hhp1, unphosphorylated, biotin-conjugated) (peptide)
peptide: Biotin-KTQQDQQHQQQLQQQLSATPQAINPPPERSSFRNYQKQNFDEKGGDINTTVPVINDPSATGAQYINRPN
Kd (MBP-Hhp1ΔC-VV): 269 µM

Next, values leading:

Kd(app) in the presence of 25 μM casein [3]: 658 µM | Kd [4]: 240 µM
Molecule: MBP-Hhp1ΔC (Hhp1 amino acids 1 to 296) (from UniProt P40235 1-296) (domain or fragment)

Kd [5]: 283 µM | Kd [6]: 425 µM | Kd [7]: 335 µM
B1: Hhp1 Cter-6P peptide (amino acids 297 to 365 of Hhp1, phosphorylated at six sites, biotin-conjugated) (peptide)
peptide: Biotin-KTQQDQQHQQQLQQQLSATPQAINPPPER[pS][pS]FRNYQKQNFDEKGGDIN[pT][pT]VPVINDP[pS]A[pT]GAQYINRPN

Kd [8]: 343 µM | binding result (MBP-CK1εΔC-T220N): binds
B2: CK1ε EC-6P peptide (amino acids 383 to 416 of CK1ε, phosphorylated at six sites, biotin-conjugated) (peptide, UniProt P49674 383-416, looked up)
peptide: Biotin-GAPANV[pS][pS][pS]DLTGRQEVSRIPA[pS]Q[pT][pS]VPFDHLGK
notes: human CK1ε, final 34 amino acids, 383-416; source: synthetic peptide (LifeTein LLC)
